One protein from PMC4433907, “Heterologous expression and characterization of laccase 2 from Coprinopsis cinerea capable of decolourizing different recalcitrant dyes” (Biotechnology, Biotechnological Equipment, 2014) can be followed below.

Test in all cases: purified protein
Substrate in data set [1]: COc1cccc(OC)c1O
The data set is classed as biochemical, Coprinopsis cinerea. The following applies: McIlvaine buffer, 30 °C, 10 min, apparent Km.

Substrate in data set [2]: CCn1c(=NN=c2sc3cc(S(=O)(=O)O)ccc3n2CC)sc2cc(S(=O)(=O)O)ccc21
The data set is classed as biochemical, Coprinopsis cinerea. The conditions noted are these: McIlvaine buffer (pH 2.6 in the standard assay), 30 °C, 10 min, apparent Km.

Substrate in data set [3]: COc1ccccc1O
The following applies: McIlvaine buffer, 30 °C, 10 min, apparent Km.

B1: CcLcc2 (laccase 2) (Coprinopsis cinerea okayama7#130) (protein)
chain: AIGPSTNLVVANKVIAPDGFSRSAVLAGATQPTVQFPGPVIQGNKNSFFAINVIDALTDPTMLRTTSIHWHGMFQRGTAWADGPAGVTQCPISPGHSFLYKFQALNQAGTFWYHSHHESQYCDGLRGAMVVYDPVDPHRNLYDIDNEATIITLADWYHVPAPSAGLVPTPDSTLINGKGRYAGGPTVPLAVISVTRNRRYRFRLVSLSCDPNYVFSIDGHTMTVIEVDGVNVQPLVVDSIQIFAGQRYSFVLNANRPVGNYWVRANPNIGTTGFVGGVNSAILRYVGASNTDPTTTQTPFSNPLLETNLHPLTNPAAPGLPTPGGVDVAINLNTVFDFSSLTFSVNGATFHQPPVPVLLQIMSGAQTAQQLLPSGSVYVLPRNKVIELSMPGGSTGSPHPFHLHGHEFAVVRSAGSSTYNFANPVRRDVVSAGVAGDNVTIRFRTDNPGPWILHCHIDWHLVLGLAVVFAEDAPTVATMDPPPAWDQLCPIYDALPPNT
As to B1, in the data set “purified protein [1]”, the Michaelis constant (Km) – broadly, the concentration of substrate that gives half-maximal velocity – amounted to 1020 µM; the Vmax (as a rule, the top rate of the reaction or transport when substrate is in excess) worked out at 57.5 µmol/min/mg; the kcat (usually the maximal rate divided by the concentration of active sites) was 73 s⁻¹; the kcat/Km – broadly, the turnover number divided by the Michaelis constant – worked out at 71600 M⁻¹ s⁻¹. In the data set “purified protein [2]”, the Km was determined as 930 µM, the maximal velocity (Vmax) stood at 667 µmol/min/mg, the kcat was 847 s⁻¹ and the kcat/Km came out at 911000 M⁻¹ s⁻¹. In the data set “purified protein [3]”, the Km is 28070 µM, the Vmax turned out to be 2.46 µmol/min/mg, the kcat came out at 3.12 s⁻¹ and the kcat/Km came out at 111 M⁻¹ s⁻¹.
